One assay deals with HLA-A*01:01. The assay is described as follows: IEDB peptide-MHC binding, purified MHC/direct/fluorescence; filed as Kd, often an IC50 or EC50 that approximates it; ≥ and ≤ were set here for values at or beyond the usual limits of such assays. The conditions noted are these: source organism: West Nile virus.
Regarding ITYTDVLRY, the Kd (in general, the constant that tells how readily two partners part at equilibrium) was 3 nM. This counts as single-digit nanomolar.

The sequence MTKEEFTRY returned a Kd of 246 nM. Against the preceding sequence, the Kd is about 82-fold higher.

As to QTDNQLAVF, the Kd turned out to be 168 nM.

On to VVEKQSGLY, for which the Kd was found to be 6 nM.

A further assay addresses HLA-A*02:01. The description is as above. Conditions: source organism: West Nile virus.
On to FLAVGGVLL, for which the Kd was determined as 3 nM.

In turn, GMSWITQGL came in with a Kd not above 1 nM.

Take ILLWEIPDV: the Kd was not above 1 nM.

The sequence RLARAIIEL yielded a Kd of 3 nM.

As for SLFGGMSWI, the Kd was not above 1 nM.

TLARGFPFV displayed a dissociation constant (Kd) of 3 nM.

For the sequence VLCPYMPKV, the Kd came to 21 nM.

Another assay concerns the target HLA-A*03:01. The description is as above. Conditions: source organism: West Nile virus.
Sequence GLYKSAPRR displayed a Kd of 37 nM.

Sequence LTYRHKVVK came in with a Kd of 94 nM. Compared with the last sequence, the Kd is about 2.5-fold higher.

MVGVGSLVK: the Kd amounted to 380 nM.

For VLRKRWTAK, the Kd worked out at 43 nM.

As for VLSLIGLKR, the Kd was 481 nM.

With VLWDTPSPK, the dissociation constant Kd was 117 nM.

In another assay the target is HLA-A*26:01. The description is as above. Conditions: source organism: West Nile virus.
DTITNVTTM returned a Kd of 4 nM. This lies in the single-digit nanomolar range.

In the case of ETTNWLWAF, the Kd came to 2 nM.

On to ETTNWLWTF, for which the Kd worked out at 5 nM.

As to EVMTAVGLM, the Kd turned out to be 5 nM.

On to FCIKVLCPY, for which the dissociation constant Kd was found to be 314 nM.

For the sequence HTTKGAALM, the Kd amounted to 23 nM.

As to MTRGLLGSY, the Kd came to 8 nM.

The target in a further assay is HLA-A*24:03. The description is as above. Conditions: source organism: West Nile virus.
In the case of EYVGKTVWF, the Kd came to 26 nM.

Sequence GYISTRVEL had a Kd of 45 nM.

LYAVTTAVL gave a dissociation constant Kd of 8 nM.

RFVLALLAF displayed a Kd of 176 nM.

On to RYLVKTESW, for which the Kd turned out to be 4 nM.

SYHDRRWCF showed a Kd of 9 nM.

With SYTLKLGEY, the Kd was determined as 143 nM.

With TYGVCAKAF, the Kd was 13 nM.

Take WFMWLGARF: the Kd amounted to 10 nM.

Consider WMILRAISF, for which the Kd was 120 nM. Against the preceding sequence, the Kd is about 12-fold higher.

The sequence WYDWQQVPF showed a Kd of 7 nM. This Kd lies about 17-fold lower than the previous one.

A further assay deals with HLA-B*08:01. The description is as above. Conditions: source organism: West Nile virus.
FTRYRKEAI: the Kd turned out to be 39 nM.

ILRNPGYAL registered a Kd of 483 nM.

As for KIRNRIERL, the Kd came out at 254 nM.

Sequence MLRKKQITV showed a Kd of 35 nM.

In a further assay the target is HLA-B*58:01. The assay is described as above. The conditions noted are these: source organism: West Nile virus.
As to GSRAIWFMW, the Kd amounted to 87 nM.

As to ISGKSTDMW, the Kd came out at 91 nM.

In turn, KSFLVHREW displayed a Kd of 11 nM.

With KSYAQMWLL, the Kd was 8 nM.

LAALGDTAW came in with a Kd of 66 nM.

With LAVSAYTPW, the dissociation constant (Kd) turned out to be 11 nM. This Kd lies about 6-fold lower than the previous one.

Regarding RAWNSGYEW, the Kd was found to be 16 nM.

For RVLEMVEDW, the Kd is 4 nM.

As to VSRLEHQMW, the dissociation constant Kd stood at 56 nM.

Another assay addresses HLA-B*39:01. Described as above. The conditions noted are these: source organism: West Nile virus.
The sequence FVDVGVSAL came in with a Kd of 52 nM.

For GRGPIRFVL, the Kd amounted to 162 nM.

In turn, TRAVGKPLL showed a Kd of 141 nM.

The sequence YTMDGEYRL came in with a Kd of 154 nM.

The target of the next assay is HLA-B*15:01. Described as above. The conditions noted are these: source organism: West Nile virus.
The sequence AMFEEQNQW gave an equilibrium dissociation constant (Kd) of 17 nM. This lies in the double-digit nanomolar range.

Sequence GVIMPNGSY registered a Kd of 29 nM.

As to KVAAAGVSY, the Kd was 165 nM.

Sequence LLLLVAPAY yielded a dissociation constant Kd of 87 nM.

In the case of LLVAPAYSF, the Kd amounted to 137 nM. This Kd is about 1.6-fold higher than that of the sequence before.

Consider LMNDPGAPW, for which the Kd is 40 nM. Compared with the last sequence, the Kd is about 3.4-fold lower.

In turn, TVSPSAPTY had a dissociation constant (Kd) of 68 nM.

Sequence VIQLNRKSY yielded a dissociation constant Kd of 105 nM.

YQPEREKVY: the Kd was found to be 80 nM.

Another assay deals with HLA-B*27:05. The assay is described as above. Conditions: source organism: West Nile virus.
Turning to GRLVTVNPF, the Kd was determined as 75 nM.

For GRMEKKTWK, the Kd is 103 nM.

Regarding LRWLVERRF, the Kd stood at 98 nM.

RRFLEPVGK returned a Kd of 50 nM. This Kd is about 2-fold lower than that of the sequence before.

Consider RRLAATTEK, for which the Kd stood at 37 nM.

RRSRRSLTV: the Kd worked out at 385 nM.

As to RRWCFDGPR, the Kd was 11 nM.

Sequence RRYGGGLVR had a Kd of 62 nM.

A further assay concerns the target HLA-B*40:01. Described as above. Conditions: source organism: West Nile virus.
AEVEEHRTV had a Kd of 130 nM. This lies in the sub-micromolar range.

With KENGVDLSV, the Kd stood at 3 nM. Against the preceding sequence, the Kd is about 43-fold lower.

The sequence NEAKVLELL displayed a Kd of 28 nM.

Regarding NEVEVITKL, the equilibrium dissociation constant (Kd) is 80 nM.

QEGALHQAL: the Kd worked out at 14 nM. Compared with the last sequence, the Kd is about 5.7-fold lower.

In the case of REDIWCGSL, the Kd worked out at 7 nM.

As to REHSGNEIV, the Kd is not above 1 nM.

The sequence RESFGVESF displayed a Kd not above 1 nM.

Regarding REWFMDLNL, the Kd is 9 nM.

In turn, VEGLGLQKL had a Kd of 230 nM.

In turn, WEALDTMYV registered a dissociation constant (Kd) of 27 nM.

In the next assay the target is HLA-B*07:02. The assay is described as above. The conditions noted are these: source organism: West Nile virus.
Take GGRAHRMAL: the Kd stood at 63 nM. In other words, the double-digit nanomolar range.

HSRRSRRSL came in with a dissociation constant (Kd) of 47 nM.

IPTAAGKNL had a Kd of 150 nM.

Turning to QPAFMVASF, the Kd stood at 71 nM.

As to RPAADGKTV, the Kd was found to be 97 nM.

RPAVGGKTV registered a Kd of 36 nM.

RVIDSRKSV showed a Kd of 97 nM.

Turning to RVYSDHQAL, the dissociation constant (Kd) was 205 nM.
